From PMC6019700 (Cell Reports, 2018) come the findings set out here.

Test [1] deals with PC64M4C054 full-length Env (early FL) (HIV-1 clade A, donor PC64, clone …, strain, N-linked glycans | N-linked glycans). Description: cell-based or functional assay.
In test [2] the target is PC64M18C043 full-length Env (late FL), clade A HIV-1 Env clone no. 43 from the 18 months post-infection … (HIV-1 clade A, donor PC64, clone …, strain, N-linked glycans (N130, N156, N160 and others) | N-linked glycans (N611, N616, N637 and others)). Description: cell-based or functional assay.

B1: PCT64-13C Fab (early Fab), PCT64 lineage antibody isolated from month 13 (Fab, V domains shown)
VH: EVQLVESGGGLVKPGGSLRLSCAASGFTFTNAWLDWVRQAPGKGLEWVGRIKSKTDGGTTDHAAPVKGRFTISRDDSKNTVYLQMNSLKIEDTAVYYCTTGVETYDFWSGYDDHYYDYYFKDVWGKGTTVTVSS
VL: EIVLTQSPGTLSLSPGERATLSCRASQSVSNNYLAWYQQKPGQAPRLLIYGASSRATGIPDRFSGSGSGTDFTLTISRLEPEDFAVYYCQQSARSFTFGPGTKVDIK
Take B1: in test [1], the “neutralisation of early M4 virus by the antibody PCT64-13C, IC50” value was determined as 0.0229 µg/mL.

B2: PCT64-35S Fab (late Fab), PCT64 lineage antibody isolated from the month 35 sample (Fab, V domains shown)
VH: EVQLVESGGGLVKPGGSLRLACVGSEFTFSEAWMTWVRQAPGKGLEWVGHMRPTTEGGAKDYAAAVRGRFTIARDDSKSTLYLQMNSLKIEDTGVYYCMTGVERGDFWSDDYSQHYNTYLIDVWGKGTTVTVSS
VL: EIVLTQSPGTLSLSPGDRATLSCRATQSVGGDYFAWYQQRPGQSPRLLIYGTSRRAAGIPDRFSGSGSGTDFTLTIDRLEPEDFAVYYCRQYETSFTFGPGTKVDIK
As for B2, the “neutralisation of late M18 virus by the antibody PCT64-35S, IC50” value in test [2] was found to be 9 µg/mL.

B3: PGT151 Fab (Fab, V domains shown)
VH: RVQLVESGGGVVQPGKSVRLSCVVSDFPFSKYPMYWVRQAPGKGLEWVAAISGDAWHVVYSNSVQGRFLVSRDNVKNTLYLEMNSLKIEDTAVYRCARMFQESGPPRLDRWSGRNYYYYSGMDVWGQGTTVTVSS
VL: DIVMTQTPLSLSVTPGQPASISCKSSESLRQSNGKTSLYWYRQKPGQSPQLLVFEVSNRFSGVSDRFVGSGSGTDFTLRISRVEAEDVGFYYCMQSKDFPLTFGGGTKVDLK
As for B3, the “neutralisation of late Env pseudovirus, IC50” value in test [2] is 0.0013 µg/mL.
